In general, Kd refers to the free concentration of one partner at which half of the binding sites on the other are occupied at equilibrium, for simple one-to-one binding. A low value points to a tighter complex.

For the series, the target named is T1, RIG-I (human, UniProt O95786 1-925).
T1 sequence: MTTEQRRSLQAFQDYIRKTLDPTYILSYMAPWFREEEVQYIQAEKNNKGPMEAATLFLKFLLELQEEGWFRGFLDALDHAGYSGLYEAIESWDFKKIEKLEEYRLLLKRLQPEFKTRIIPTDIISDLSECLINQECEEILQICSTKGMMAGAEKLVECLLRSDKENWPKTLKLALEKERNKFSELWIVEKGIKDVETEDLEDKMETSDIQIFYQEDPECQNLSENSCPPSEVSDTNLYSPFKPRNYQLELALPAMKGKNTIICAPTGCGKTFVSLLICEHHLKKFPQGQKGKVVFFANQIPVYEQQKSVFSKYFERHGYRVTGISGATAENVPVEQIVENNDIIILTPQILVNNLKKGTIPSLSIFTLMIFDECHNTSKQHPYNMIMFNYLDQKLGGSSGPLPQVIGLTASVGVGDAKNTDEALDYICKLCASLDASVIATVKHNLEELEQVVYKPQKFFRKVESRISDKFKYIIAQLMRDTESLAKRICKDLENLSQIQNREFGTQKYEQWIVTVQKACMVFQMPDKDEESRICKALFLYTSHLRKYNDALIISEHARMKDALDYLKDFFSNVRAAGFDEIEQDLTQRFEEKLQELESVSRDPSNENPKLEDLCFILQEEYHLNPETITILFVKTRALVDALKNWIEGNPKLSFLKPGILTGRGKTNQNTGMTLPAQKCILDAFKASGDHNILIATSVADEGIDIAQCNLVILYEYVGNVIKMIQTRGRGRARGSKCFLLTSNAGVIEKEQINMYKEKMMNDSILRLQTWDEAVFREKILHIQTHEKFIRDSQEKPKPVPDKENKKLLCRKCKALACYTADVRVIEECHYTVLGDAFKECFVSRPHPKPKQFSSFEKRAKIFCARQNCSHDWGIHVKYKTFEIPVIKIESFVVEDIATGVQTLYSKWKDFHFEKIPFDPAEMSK
The series can be described thus: filter binding.

B1: CL9 (AP-treated) (XNA)
RNA: GGGAGAGCGGAAGCGUGCUGGGCCACCAUCCGUAACUAGCUAAUACUUGUUAUCUUUUUAUUUUCAUAACCCAGAGGUCGAUGGAUCCCCCC
modifications: 2'-F U and 2'-F C (all)
Take B1: binding was put at a Kd of 37.2 nM.

Values taken from article PMC3315321.
